This is an account of results in patent US20210269480A1 (published 2021).

What is called Ki is a dissociation constant, usually derived from enzyme kinetics or from competition with a known ligand. Lower therefore signals tighter binding.

T1: human Nectin-4 (human, UniProt Q96NY8 32-349)
T1 construct: a Gly32-Ser349 FLAG construct is described only under the SPR assay; also called PVRL4
T1 sequence (looked up): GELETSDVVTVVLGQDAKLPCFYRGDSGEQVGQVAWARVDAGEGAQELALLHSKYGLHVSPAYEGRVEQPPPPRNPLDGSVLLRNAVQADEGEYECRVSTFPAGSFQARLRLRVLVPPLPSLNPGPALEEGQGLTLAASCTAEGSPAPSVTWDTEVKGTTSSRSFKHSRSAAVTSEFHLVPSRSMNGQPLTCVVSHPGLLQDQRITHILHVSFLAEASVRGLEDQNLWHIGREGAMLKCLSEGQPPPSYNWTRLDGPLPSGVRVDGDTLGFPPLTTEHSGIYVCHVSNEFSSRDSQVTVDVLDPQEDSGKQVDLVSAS

*1 amine or outer side, *2 acyl side, *3 side chain or, on linkers, in order; H or OH if unused. Bridges are numbered along the chain shown (N, C = ends). Where no end group is shown, it is not given here. [ ]: non-standard residue; d: D form. TATA = O=C(CC[*:1])N1CN(C(=O)CC[*:2])CN(C(=O)CC[*:3])C1; 1Nal = N[C@@H](Cc1cccc2ccccc12)C(=O)O; 2Nal = N[C@@H](Cc1ccc2ccccc2c1)C(=O)O; NMehArg = CN[C@@H](CCCCNC(=N)N)C(=O)O; Hyp = O=C(O)[C@@H]1C[C@@H](O)CN1; NMeI = CC[C@H](C)[C@H](NC)C(=O)O; NMeT = CN[C@H](C(=O)O)[C@@H](C)O; dCya = N[C@H](CS(=O)(=O)O)C(=O)O; hArg = N=C(N)NCCCC[C@H](N)C(=O)O; NMeN = CN[C@@H](CC(N)=O)C(=O)O; Agb = N=C(N)NCC[C@H](N)C(=O)O; βAla = NCCC(=O)O; Sar = CNCC(=O)O

The target in this test is T1, human Nectin-4. The test can be described thus: FP competition, tracer SEQ ID NO 217. As for the experimental part: Peptides were diluted to an appropriate concentration in assay buffer as described in the direct binding assay with a maximum of 5% DMSO, then serially diluted 1 in 2. […] Measurements were conducted as for the direct binding assay, however the gain was determined prior to the first measurement. Data analysis was in Systat Sigmaplot version 12.0 where the mP values were fit to a user defined cubic equation to generate a Ki value: […]
Ac-CP[1Nal][dR]CMPDWSTP[Hyp]WC (linker 1-5-15 via TATA) [BCY8193] showed a Ki of 3 nM.
The figure for DPGCPFGCMPGWSWPIWCA (linker 4-8-18 via TATA) [BCY3392] is 36.3 nM.
In the case of HDSCPFGCMKSWSWPIWCA (linker 4-8-18 via TATA) [BCY3393] it was 173 nM.
For the molecule Ac-CPF[dD]CM[NMehArg]NWSTPIWC (linker 1-5-15 via TATA) [BCY8153], the Ki is 35 nM.
The figure for Ac-CPF[dK](MeO‑dPEG12)CM[hArg]NWSTPIWC (linker 1-5-15 via TATA) [BCY8089] is 8 nM.
The figure for Ac-CP[1Nal][dR]CM[hArg]DWSTP[Hyp]WC (linker 1-5-15 via TATA) [BCY8184] is 3.2 nM.
In the case of Ac-CPF[dD]CM[hArg]NWS[NMeT]PIWC (linker 1-5-15 via TATA) [BCY8157] it was 5 nM; in that of Ac-CP[1Nal][dR]CM[Hyp]DWSTP[Hyp]WC (linker 1-5-15 via TATA) [BCY8194], 3.5 nM; in that of DSECPFGCMSGWSWPIWCA (linker 4-8-18 via TATA) [BCY3389], 99.8 nM.
Molecule Ac-CPF[dD]CM[hArg][NMeN]WSTPIWC (linker 1-5-15 via TATA) [BCY8154] returned a Ki of 8 nM.
In the case of Ac-CP[2Nal][dR]CM[hArg]DWSTP[Hyp]WC (linker 1-5-15 via TATA) [BCY8186] it was 6 nM.
The figure for Ac-CP[1Nal][dCya]CM[hArg]DWSTP[Hyp]WC (linker 1-5-15 via TATA) [BCY8163] is 3 nM; for Ac-CPF[dD]CM[hArg]NWSTP[NMeI]WC (linker 1-5-15 via TATA) [BCY8158] it is 177 nM; for HDACPFGCMEGWSWPIWCA (linker 4-8-18 via TATA) [BCY3390] it is 302 nM.
In turn, MDTCPFGCMEDWSWPIWCA (linker 4-8-18 via TATA) [BCY3391] yielded a Ki of 198 nM.
In the case of Ac-CP[1Nal][dD]CMPDWSTP[Hyp]WC (linker 1-5-15 via TATA) [BCY8182] it was 2 nM.
In the case of DTACPFGCMRGWSWPIWCA (linker 4-8-18 via TATA) [BCY3388] it was 129 nM.
On to Ac-CP[1Nal][dR]CM[Agb]DWSTP[Hyp]WC (linker 1-5-15 via TATA) [BCY8192], for which the Ki was determined as 5 nM.
The figure for ACPFGCMKTWSWPIWCTDK (linker 2-6-16 via TATA) [BCY3394] is 102 nM.
As to {Ac-βAla}-[Sar][Sar][Sar][Sar][Sar]CP[1Nal][dD]CM[hArg]DWSTP[Hyp]WC (linker 6-10-20 via TATA) [BCY8122], the affinity corresponds to a Ki of 3 nM.
In the case of Ac-CP[1Nal][dR]CL[hArg]HWSTP[Hyp]WC (linker 1-5-15 via TATA) [BCY8214] it was 6.3 nM; in that of Ac-CP[1Nal][dD]CL[hArg]DWSTP[Hyp]WC (linker 1-5-15 via TATA) [BCY8212], 3 nM; in that of Ac-CP[1Nal][dR]CM[hArg]HWSTP[Hyp]WC (linker 1-5-15 via TATA) [BCY8129], 3.1 nM.
As for Ac-CP[1Nal][dD]CM[hArg]HWSTP[Hyp]WC (linker 1-5-15 via TATA) [BCY8125], the Ki came to 3.1 nM.
In the case of Ac-CP[1Nal][dR]CM[hArg]NWSTP[Hyp]WC (linker 1-5-15 via TATA) [BCY8128] it was 2.2 nM; in that of Ac-CP[1Nal][dD]CM[hArg]NWSTP[Hyp]WC (linker 1-5-15 via TATA) [BCY8124], 3.5 nM.
As for {Ac-βAla}-[Sar][Sar][Sar][Sar][Sar]CP[1Nal][dD]CM[hArg]HWSTP[Hyp]WC (linker 6-10-20 via TATA) [BCY8121], the Ki was determined as 4 nM.
The figure for Ac-CP[1Nal][dR]CM[hArg]DWDTP[Hyp]WC (linker 1-5-15 via TATA) [BCY8185] is 26.1 nM; for Ac-CP[1Nal][dD]CM[hArg]DWDTP[Hyp]WC (linker 1-5-15 via TATA) [BCY8174] it is 12.3 nM; for Ac-CP[1Nal][dR]CL[hArg]DWSTP[Hyp]WC (linker 1-5-15 via TATA) [BCY8213] it is 3.5 nM.
The figure for Ac-CP[1Nal][dR]CM[hArg]DWTTP[Hyp]WC (linker 1-5-15 via TATA) [BCY8187] is 5 nM; for {Ac-βAla}-[Sar][Sar][Sar][Sar][Sar]CP[1Nal][dD]CM[hArg]NWSTP[Hyp]WC (linker 6-10-20 via TATA) [BCY8120] it is 3 nM.
The figure for Ac-CP[1Nal][dR]CM[hArg]DWSSP[Hyp]WC (linker 1-5-15 via TATA) [BCY8191] is 4.5 nM.
For the molecule Ac-CP[1Nal][dD]CM[hArg]DWSSP[Hyp]WC (linker 1-5-15 via TATA) [BCY8180], the Ki was 3 nM.
The figure for Ac-CP[1Nal][dD]CM[hArg]DWTTP[Hyp]WC (linker 1-5-15 via TATA) [BCY8176] is 3.5 nM.
